Experimental data: patent publication US20080242590A1, “New Method 706” (ASTRAZENECA AB, priority 2007, published 2008)

Columns and labels:
Experiment in all cases: cell-based or functional assay
[1] = target: amyloid β peptide 1-40 (human) (human)
[2] = target: amyloid β peptide 1-42 (human) (human)
[3] = target: amyloid β peptide 1-42 in guinea pig plasma (guinea pig) (UniProt Q60495)
[4] = target: amyloid β peptide 1-40 in guinea pig plasma (guinea pig) (UniProt Q60495)
Chain of amyloid β peptide 1-40 in guinea pig plasma (guinea pig) (Q60495 672-711 limits assumed): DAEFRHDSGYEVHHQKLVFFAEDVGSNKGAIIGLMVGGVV

Chain of amyloid β peptide 1-40 (human) (human) (peptide, as listed by the source): as the sequence (Q60495 672-711 limits assumed) above
Chain of amyloid β peptide 1-42 (human) (human) (peptide, as listed by the source): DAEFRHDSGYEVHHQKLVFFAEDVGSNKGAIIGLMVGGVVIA
Chain of Recombinant Human Neprilysin (R&D Systems) (P08473 52-750 limits assumed): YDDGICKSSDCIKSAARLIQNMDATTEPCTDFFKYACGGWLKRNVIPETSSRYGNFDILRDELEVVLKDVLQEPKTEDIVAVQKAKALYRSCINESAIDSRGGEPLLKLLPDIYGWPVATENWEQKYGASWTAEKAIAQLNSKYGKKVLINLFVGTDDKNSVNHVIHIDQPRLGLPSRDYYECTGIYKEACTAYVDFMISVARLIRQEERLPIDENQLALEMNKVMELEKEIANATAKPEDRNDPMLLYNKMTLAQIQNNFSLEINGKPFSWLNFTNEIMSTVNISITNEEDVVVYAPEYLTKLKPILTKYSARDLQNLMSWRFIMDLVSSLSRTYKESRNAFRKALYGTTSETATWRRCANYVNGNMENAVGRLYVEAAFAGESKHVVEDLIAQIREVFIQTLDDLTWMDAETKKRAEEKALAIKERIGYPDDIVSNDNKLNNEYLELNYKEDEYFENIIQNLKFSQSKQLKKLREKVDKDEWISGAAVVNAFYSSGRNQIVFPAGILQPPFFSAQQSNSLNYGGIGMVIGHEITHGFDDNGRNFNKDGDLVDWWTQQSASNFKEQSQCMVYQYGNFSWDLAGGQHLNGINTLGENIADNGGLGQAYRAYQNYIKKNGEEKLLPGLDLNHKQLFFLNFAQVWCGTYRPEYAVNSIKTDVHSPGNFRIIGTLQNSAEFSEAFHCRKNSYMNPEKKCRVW

Row | Substance | % degradation of amyloid β 1-40 in APPswe-tg mouse plasma at highest concentration (100 µg/ml), 1 h room temperature, ELISA [1] | % degradation of amyloid β 1-40 in human plasma at highest concentration (100 µg/ml), 1 h room temperature, ELISA [1] | EC50 of degradation of Aβ 1-40 in APPswe-tg mouse plasma [1] | EC50 of degradation of Aβ 1-40 in human plasma [1] | % degradation of Aβ 1-42 in APPswe-tg mouse plasma at highest concentration (100 µg/ml), 1 h room temperature, ELISA [2] | % degradation of Aβ 1-42 in human plasma at highest concentration (100 µg/ml), 1 h room temperature, ELISA [2] | EC50 of degradation of Aβ 1-42 in APPswe-tg mouse plasma [2] | EC50 of degradation of Aβ 1-42 in human plasma [2] | reduction of Aβ42 in guinea pig plasma ex vivo compared to vehicle (ELISA), 5 µg/ml, 4 h at 37 °C [3] | degradation of Aβ40 in guinea pig plasma ex vivo compared to vehicle (ELISA), 5 µg/ml, 4 h at 37 °C [4]
1 | mouse version of the Fc-Nep (mFc-Nep) (Fc fusion) | 77% | 71% | 340 nM | 400 nM | 53% | 19% | 820 nM | 180 nM | – | –
2 | Recombinant Human Neprilysin (R&D Systems) (from UniProt P08473 52-750) (enzyme) | – | – | – | – | – | – | – | – | > 57% | 49%
